We go through four molecules from patent US20250122242A1 (WISCONSIN ALUMNI RESEARCH FOUNDATION, published 2025).

The target in assay [1] is Aβ42-T7n (amyloid-β42 fused through a GGSGG linker to the N-terminal half of split T7 RNA polymerase). Nature of the assay: cell-based or functional assay.
In assay [2] the target is T1, hIAPP-T7n (human islet amyloid polypeptide fused through a GGSGG linker to the N-terminal half of split T7 … (human)).
T1 chain: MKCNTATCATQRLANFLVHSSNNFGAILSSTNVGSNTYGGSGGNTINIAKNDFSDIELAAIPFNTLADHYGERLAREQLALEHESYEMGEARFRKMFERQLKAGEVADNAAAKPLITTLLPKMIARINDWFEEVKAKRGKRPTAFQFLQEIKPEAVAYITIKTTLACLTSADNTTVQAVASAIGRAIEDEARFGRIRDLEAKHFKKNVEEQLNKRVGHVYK
The assay can be described thus: cell-based or functional assay.

B1: cyclo-CKVWQLL (SEQ ID NO:30) encoded on evolved selection phage (PACE 1 clone 2) as SICLOPPS precursor (peptide)
peptide: cyclo(CKVWQLL)
modifications: not fully specified; printed as cyclo-CKVWQLL
For B1, in assay [1], the “fold phage propagation on E. coli encoding the Aβ42-T7n selection, against scrambled control” value was about 300 fold.

B2: cyclo-CDLGVFR (SEQ ID NO:68) encoded on selection phage as SICLOPPS precursor (peptide)
peptide: cyclo(CDLGVFR)
modifications: not fully specified; printed as cyclo-CDLGVFR
On to B2, for which the “propagation of clonal SP on hIAPP against Aβ42 selection cells” value in assay [2] is about 1000 fold.

B3: cyclo-CRCVFSG (SEQ ID NO:69) encoded on selection phage as SICLOPPS precursor (peptide)
peptide: cyclo(CRCVFSG)
modifications: not fully specified; printed as cyclo-CRCVFSG; cysteine pairing not given here
Regarding B3, in assay [2], the “propagation of clonal SP on hIAPP against Aβ42 selection cells” value was about 10 fold.

B4: cyclo-CKVWQLL (SEQ ID NO:30) encoded on parent selection phage as SICLOPPS precursor (peptide)
peptide: cyclo(CKVWQLL)
modifications: not fully specified; printed as cyclo-CKVWQLL
For the molecule B4, in assay [1], the “fold phage propagation on E. coli encoding the Aβ42-T7n selection, against SP carrying scrambled control cyclo-CVQWLKL” value is about 500 fold.
